The values below come from publication PMC4750992, “A New Mutation, hap1-2, Reveals a C Terminal Domain Function in AtMago Protein and Its Biological Effects in Male Gametophyte Development in Arabidopsis thaliana” (PLoS ONE, 2016).

This experiment concerns the target T1, His-AteIF4AIII (Arabidopsis thaliana, UniProt Q94A52 1-408).
T1 construct: AteIF4AIII, Arabidopsis thaliana; cDNA amplified from qrt cDNAs with primers AteIF4AIIIFNdeI and AteIF4AIIIRSalI; Vector pET16b; also called His-eIF4AIII; source: E. coli BL21 (DE3) (pET16b), purified and eluted with ProBond beads
Put plainly: pull-down; MBP, MBP-AtMago or MBP-AtMagoΔC kept on amylose beads; purified His-Y14 or His-eIF4AIII diluted in Column Buffer (200 mM NaCl, 1 mM EDTA, 20 mM Tris-HCl, pH 7.4), 300 μL, on ice 1 hour; three washes; Western blot with anti-His or anti-MBP. The note with it: both partners purified.

T1 sequence (Q94A52 whole entry): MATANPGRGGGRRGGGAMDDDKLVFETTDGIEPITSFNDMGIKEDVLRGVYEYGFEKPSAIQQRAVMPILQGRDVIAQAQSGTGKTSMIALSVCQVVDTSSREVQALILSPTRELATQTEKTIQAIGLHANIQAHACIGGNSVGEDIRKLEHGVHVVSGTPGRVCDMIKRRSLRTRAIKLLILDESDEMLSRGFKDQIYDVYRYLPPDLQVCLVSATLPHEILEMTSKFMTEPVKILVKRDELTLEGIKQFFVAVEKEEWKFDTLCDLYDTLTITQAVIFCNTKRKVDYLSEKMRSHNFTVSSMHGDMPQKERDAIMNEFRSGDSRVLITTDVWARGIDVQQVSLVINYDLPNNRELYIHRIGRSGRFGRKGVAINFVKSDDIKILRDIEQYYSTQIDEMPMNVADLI

B1: MBP-AtMago (natural protein, Arabidopsis thaliana, UniProt O23676 1-150, looked up)
chain: MAAEEATEFYLRYYVGHKGKFGHEFLEFEFREDGKLRYANNSNYKNDTIIRKEVFLTPAVLKECKRIVSESEILKEDDNNWPEPDRVGKQELEIVLGNEHISFATSKIGSLVDCQSSNDPEGLRIFYYLVQDLKCLVFSLISLHFKIKPI
notes: AtMago (HAP1), Arabidopsis thaliana, full length protein of 150 amino acids; cDNA amplified from qrt;HAP1/hap1-2 cDNAs; Cloned BamHI/HindIII into pMAL-c2; also called HAP1; HAPLESS1
Turning to B1, the binding result is recorded as “binds”.
